Data as given in the Immune Epitope Database (IEDB).
pKd: −log10 of the molar value.

What was measured:
Assay in all cases: IEDB peptide-MHC binding, purified MHC/competitive/radioactivity; filed as Kd, often an IC50 or EC50 that approximates it; ≥ and ≤ were set here for values at or beyond the usual limits of such assays
Settings in all cases: source organism: human papillomavirus 18
HLA-A*11:02 = target: HLA-A*11:02
HLA-A*03:01 = target: HLA-A*03:01
HLA-A*01:01 = target: HLA-A*01:01
HLA-A*02:01 = target: HLA-A*02:01
HLA-A*24:02 = target: HLA-A*24:02

Row | Sequence | pKd (HLA-A*11:02) | pKd (HLA-A*03:01) | pKd (HLA-A*02:01) | other results
1 | ATLQDIVLH | 7.92 | – | – | –
2 | CIDFYSRIR | 7.57 | 6.56 | – | pKd (HLA-A*01:01): 6.09
3 | DIEITCVYC | – | 6.34 | 6.19 | pKd (HLA-A*01:01): 6.30
4 | DLFVVYRDS | – | 6.00 | – | –
5 | ELTEVFEFA | – | – | 6.30 | –
6 | FAFKDLFVV | – | – | 8.52 | –
7 | FKDLFVVYR | 6.30 | 6.48 | 6.30 | pKd (HLA-A*01:01): 6.13
8 | FLNTLSFVC | – | – | 6.03 | –
9 | FQQLFLNTL | – | – | 6.38 | –
10 | GLYNLLIRC | 6.73 | 6.50 | 6.87 | –
11 | GQCHSCCNR | 7.19 | – | – | –
12 | HLNEKRRFH | – | 6.18 | – | –
13 | HTMLCMCCK | 8.30 | 7.14 | – | –
14 | IEITCVYCK | – | 6.70 | – | –
15 | KCIDFYSRI | – | – | 6.38 | –
16 | KLPDLCTEL | – | – | 6.22 | –

Row | Sequence | pKd (HLA-A*11:02) | pKd (HLA-A*03:01) | pKd (HLA-A*02:01) | other results
17 | LFLNTLSFV | – | – | 6.09 | –
18 | LFVVYRDSI | – | 6.36 | – | –
19 | LIRCLRCQK | 6.43 | 6.28 | – | –
20 | LLIRCLRCQ | – | 6.29 | – | –
21 | LQDIEITCV | – | 6.20 | – | pKd (HLA-A*01:01): 6.01
22 | NTGLYNLLI | – | – | – | pKd (HLA-A*01:01): 6.30
23 | RCQKPLNPA | 6.25 | – | – | –
24 | RHTMLCMCC | – | – | – | pKd (HLA-A*24:02): 6.13
25 | RQERLQRRR | – | 6.32 | – | –
26 | SIPHAACHK | 7.82 | – | – | –
27 | SLQDIEITC | – | – | 6.27 | –
28 | SVYGDTLEK | 8.70 | 7.49 | – | –
29 | TEVFEFAFK | 6.59 | – | – | –
30 | VVYRDSIPH | 8.30 | – | – | –
31 | VYCKTVLEL | 6.25 | – | – | pKd (HLA-A*24:02): 7.62
32 | VYGDTLEKL | – | – | – | pKd (HLA-A*24:02): 6.65
